Here are results for one substance from article PMC6748660.

This test has as its target full-length mScarlet-tagged tau (2N4R) (human) (UniProt P10636). The test can be described thus: TIRF microscopy, condensate enrichment assay.

“GFP-tagged isolated C-terminus of tau (domain or fragment)”: the fold enrichment within mScarlet-2N4R condensates over the lattice was determined as 1.2 fold.
